Laboratory results as given in the supplement of paper PMC10567573.

B1: ZNF263 (parent)
chain: FGGNPRFLSLHRAHLGEEAHKCLE

Variants of: B1
Experiment: protein stability index of a GFP-peptide fusion (GPS, HEK-293T) (PSI 1-6); higher = more stable
Conditions: c terminus: a fixed tail appended
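Further: lentivirally expressed fusions sorted by FACS into six bins by GFP to DsRed ratio, PSI derived from sequencing read proportions per bin multiplied by bin number.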

Row | Variant | protein stability index
1 | FGGNPRFLSLHCAHLGEEAHKCLE | 1.87
2 | FGGNPRFLSLHTAHLGEEAHKCLE | 1.95
3 | FGGNPRFLSLHVAHLGEEAHKCLE | 3.14
4 | FGGNPRFLSLHRAHLGNEAHKCLE | 1.97
5 | FGGNPRFLSLHRAHLGHEAHKCLE | 1.82
6 | FGGNPRFLSLHRAHLGMEAHKCLE | 2.82
7 | FGGNPRFLSLHRAHLGCEAHKCLE | 2.37
8 | FGGNPRFLSLHRAHLGQEAHKCLE | 1.85
9 | FGGNPRFLSLHRAHLKEEAHKCLE | 1.62
10 | FGGNPRFLSLHRAHLIEEAHKCLE | 2.06
11 | FGGNPRFLSLHRAHLMEEAHKCLE | 2.19
12 | FGGNPRFLSLHRAHLGEEAAKCLE | 1.24
13 | FGGNPRFLSLHRAHLGEEAWKCLE | 2.24
14 | FGGNPRFLSLHRAHLGEEAVKCLE | 1.43
15 | FGGNPRFLSLHRAHLGEEARKCLE | 1.66
16 | FGGNPRFLSLHRAHLGEEACKCLE | 2.94
17 | FGGNPRFLSLHRAHLGEEAMKCLE | 2.13
18 | FGGNPRFLSLHRAHCGEEAHKCLE | 3.76
19 | FGGNPRFLSLHRAHGGEEAHKCLE | 1.89
20 | FGGNPRFLSLHRAHEGEEAHKCLE | 1.7
21 | FGGNPRFLSLHRAHKGEEAHKCLE | 2.06
22 | FGGNPRFLSLHRAHIGEEAHKCLE | 1.54
23 | FGGNPRFLSLHRAHDGEEAHKCLE | 2.46
24 | NGGNPRFLSLHRAHLGEEAHKCLE | 3.94

Row | Variant | protein stability index
25 | TGGNPRFLSLHRAHLGEEAHKCLE | 3.48
26 | AGGNPRFLSLHRAHLGEEAHKCLE | 3.45
27 | PGGNPRFLSLHRAHLGEEAHKCLE | 3.7
28 | DGGNPRFLSLHRAHLGEEAHKCLE | 4.17
29 | HGGNPRFLSLHRAHLGEEAHKCLE | 3.19
30 | QGGNPRFLSLHRAHLGEEAHKCLE | 3.38
31 | FGGGPRFLSLHRAHLGEEAHKCLE | 1.56
32 | FGGHPRFLSLHRAHLGEEAHKCLE | 1.97
33 | FGGIPRFLSLHRAHLGEEAHKCLE | 2.24
34 | FGGCPRFLSLHRAHLGEEAHKCLE | 1.62
35 | FGGNPRSLSLHRAHLGEEAHKCLE | 3.57
36 | FGGNPRHLSLHRAHLGEEAHKCLE | 2.56
37 | FGGNPRYLSLHRAHLGEEAHKCLE | 2.04
38 | FGGNPRELSLHRAHLGEEAHKCLE | 4
39 | FGGNPRFLSLHRAHLGEEAHKCKE | 1.91
40 | FGGNPRFLSLHRAHLGEEAHKCPE | 2.02
41 | FGGNPRFLSLHRAHLGEEAHKCCE | 1.97
42 | FGGNPRFLSLHRAHLGEEAHKCNE | 2.21
43 | FGENPRFLSLHRAHLGEEAHKCLE | 2.16
44 | FGLNPRFLSLHRAHLGEEAHKCLE | 2.5
45 | FGKNPRFLSLHRAHLGEEAHKCLE | 2.36
46 | FGTNPRFLSLHRAHLGEEAHKCLE | 2.17
47 | FGPNPRFLSLHRAHLGEEAHKCLE | 2.13
48 | FGRNPRFLSLHRAHLGEEAHKCLE | 2.48

Row | Variant | protein stability index
49 | FGVNPRFLSLHRAHLGEEAHKCLE | 2.83
50 | FGHNPRFLSLHRAHLGEEAHKCLE | 2.51
51 | FGGNPRFLSLHRAHLGEEPHKCLE | 2.08
52 | FGGNPRFLSLHRAHLGEENHKCLE | 1.66
53 | FGGNPRFLSLHRAHLGEECHKCLE | 2.48
54 | FGGNPRFLSLHRAHLGEESHKCLE | 2.48
55 | FGGNPRFLSLHRAHLGEELHKCLE | 1.39
56 | FGGNPRFLSLHRAHLGEEMHKCLE | 2.18
57 | FGGNPRFLSLHRADLGEEAHKCLE | 2.56
58 | FGGNPRFLSLHRASLGEEAHKCLE | 1.35
59 | FGGNPRFLSLHRAALGEEAHKCLE | 1.74
60 | FGGNPRFLSLARAHLGEEAHKCLE | 1.41
61 | FGGNPRFLSLVRAHLGEEAHKCLE | 2.55
62 | FGGNPRFLSLPRAHLGEEAHKCLE | 1.75
63 | FGGNPRFLSLHRAHLGEEAHKCLH | 1.69
64 | FGGNPRFLSLHRAHLGEEAHKCLT | 1.56
65 | FGGNPRFLSLHRAHLGEEAHKCLK | 1.76
66 | FGGNPRFLSLHRAHLGEEAHKCLC | 2.15
67 | FGGNPRFLSLHRAHLGEEAHICLE | 2.14
68 | FGGNPRFLSLHRAHLGEEAHWCLE | 1.6
69 | FGGNPRFLSLHRAHLGEEAHVCLE | 1.38
70 | FGGNPRFLSLHRAHLGEEAHKHLE | 2.44
71 | FGGNPRFLSLHRAHLGEEAHKTLE | 1.47
72 | FGGNPRFLSLHRAHLGEEAHKILE | 1.59

Row | Variant | protein stability index
73 | FGGNPRFLSLHRAHLGEEAHKRLE | 1.75
74 | FGGNPRFLSLHRAHLGEEAHKGLE | 1.62
75 | FGGNPRFLSLHRAHLGEEAHKPLE | 2.44
76 | FGGNPRFLSLHRAHLGEEAHKQLE | 2.66
77 | FGGNPRFLSLHRAHLGEEAHKKLE | 2
78 | FGGNPRFLSLHRAHLGEIAHKCLE | 2.34
79 | FGGNPRFLSLHRAHLGEFAHKCLE | 1.85
80 | FGGNPRFLSLHRAHLGEQAHKCLE | 1.87
81 | FGGNPRFLSLHRAHLGEPAHKCLE | 2.05
82 | FGGNPRFLSLHRAHLGEGAHKCLE | 1.61
83 | FGGNPRFLSNHRAHLGEEAHKCLE | 2.22
84 | FGGNPRFLSPHRAHLGEEAHKCLE | 2.01
85 | FGGNPRFLSHHRAHLGEEAHKCLE | 2.17
86 | FGGNPRFLSMHRAHLGEEAHKCLE | 2.02
87 | FGGNPRFLSTHRAHLGEEAHKCLE | 1.99
88 | FGGNPRFLSWHRAHLGEEAHKCLE | 3.91
89 | FGGNPRFLSRHRAHLGEEAHKCLE | 2.69
90 | FGGNYRFLSLHRAHLGEEAHKCLE | 1.57
91 | FGGNNRFLSLHRAHLGEEAHKCLE | 3.16
92 | FGGNGRFLSLHRAHLGEEAHKCLE | 1.64
93 | FGGNIRFLSLHRAHLGEEAHKCLE | 1.52
94 | FGGNSRFLSLHRAHLGEEAHKCLE | 1.93
